Data: patent US7129055
Where “and” joins values, the source holds several entries; their conditions need not be identical. Identical values can stand only once.

target: C-C Chemokine Receptor 5 (CC-CKR5) (human) (UniProt P51681); experiment: cell-based or functional assay

| Substance | sensitivity of 293T cells co-expressing CD4 and CC-CKR-5 to infection by pseudotyped luciferase reporter virus (orders of magnitude) | reduction of infection of HeLa cells expressing CD4 and CC-CKR-5 by macrophage-tropic virus; mixture of chemokines |
| --- | --- | --- |
| ADA Env (macrophage-tropic HIV-1 envelope glycoprotein) | 3 and 4 | – |
| MIP-1α (from UniProt P10147 23-92) (ligand) | – | 80% and 70% |
| MIP-1β (from UniProt P13236 24-92) (ligand) | – | 70% and 80% |
| BaL Env (macrophage-tropic HIV-1 envelope glycoprotein) | 3 and 4 | – |
| RANTES (from UniProt P13501 24-91) (ligand) | – | 70% and 80% |
| JRFL Env (macrophage-tropic HIV-1 envelope glycoprotein) | 3 and 4 | – |
